According to PMC6781444:

Target: 80S ribosome (rabbit (endogenous in reticulocyte lysate))
Experiment: co-sedimentation

fold reduction of cosedimentation against WT SR | Substance
> 2 fold | SRdR, SRαβΔTM with the RBR of SRα (residues 205–250) replaced with (GS)6 (from UniProt P08240;Q9Y5M8) (complex)
> 2 fold | SRdC, SRαβΔTM with the CBR of SRα (residues 129–176) replaced with (GS)6 (from UniProt P08240;Q9Y5M8) (complex)
